This is an account of results in US8642284.

The target of data set [1] is histone H2B (calf thymus) (UniProt P62808).
Data set [2] deals with histone H3 N-terminal tail peptide (residues 1-20) di-acetylated at lysines 9 and 14.
For data set [3], the target named is histone H2A (calf thymus) (UniProt P0C0S9).
The subject of data set [4] is unacetylated histone H3 N-terminal tail peptide (residues 1-20).
For data set [5], the target named is histone H3 (calf thymus), intact protein (UniProt P68432).
For data set [6], the system named is histone H1 (calf thymus).
The target of data set [7] is histone H4 (calf thymus) (UniProt P62803).

For “recombinant 6xHis-tagged full-length yeast Sir2p”, the “ADP-ribosylation (transfer of 32P from NAD, SDS-PAGE)” value in data set [1] is “transferred radioactive ADP-ribose to H2B and H3”; in data set [3] it was “but not to H1, H2A and H4”; in data set [5] it was “transferred radioactive ADP-ribose to H2B and H3”; in data set [6], “but not to H1, H2A and H4”; in data set [7], “but not to H1, H2A and H4”. Also, the “ADP-ribosylation of peptide (32P-NAD, thin layer chromatography)” value in data set [2] was “Both the yeast and mouse Sir2 modified only the diacetylated H3 tail peptide”; in data set [4], “modified only the diacetylated H3 tail peptide (unacetylated peptide not modified)”. The “NAD-dependent deacetylation (HPLC, areas under peaks 1, 2 and 4)” value in data set [2] is “at least 27% of the input peptide was deacetylated by Sir2p”. For the same substance, the “deacetylation of Lys9 in peak 4 (Edman sequencing)” value in data set [2] is listed as “about 23% of Lys9”. Besides, in data set [2], the “deacetylation of Lys14 in peak 4 (Edman sequencing)” value is 27% of Lys 14. Moreover, the “transfer of 32P from NAD (SDS-PAGE)” value in data set [5] was 32P was transferred from NAD to intact histone H3.
